According to paper doi:10.1101/2025.03.26.645513 (bioRxiv, 2025):

B1: Staphylococcus aureus O-acetylserine sulfhydrylase CysK (enzyme, UniProt P63870 1-310, looked up)
chain: MAQKPVDNITQIIGGTPVVKLRNVVDDNAADVYVKLEYQNPGGSVKDRIALAMIEKAEREGKIKPGDTIVEPTSGNTGIGLAFVCAAKGYKAVFTMPETMSQERRNLLKAYGAELVLTPGSEAMKGAIKKAKELKEEHGYFEPQQFENPANPEVHELTTGPELLQQFEGKTIDAFLAGVGTGGTLSGVGKVLKKEYPNIEIVAIEPEASPVLSGGEPGPHKLQGLGAGFIPGTLNTEIYDSIIKVGNDTAMEMSRRVAKEEGILAGISSGAAIYAAIQKAKELGKGKTVVTVLPSNGERYLSTPLYSFDD
B2: Neisseria gonorrhoeae serine acetyltransferase CysE (enzyme)
chain: MKKNHLNTTGFDLWHTIREETAAAAAAEPMLASFLHQTVLRHESLGSVLAYHLSSKLGSPIMDVRALFEIYQQALGSDTQISKCVEADLKAIYERDPACDEYSLPLLYFKGFHAIQAHRINHRLYLDGRKTLAYFLQNRMSEVFGVDIHPAARLGYGLMLDHATGFVAGETAVLGNNISILHGVTLGGSGKEGGDRHPKIGDGVMIGANASILGNIRIGSNAKIGAGSVVVSDVPPSITVVGVPAKPVARSLKTPSADMDQNIQFAEIDFMI
B3: Escherichia coli O-acetylserine sulfhydrylase CysK (enzyme, UniProt P0ABK5 1-323, looked up)
chain: MSKIFEDNSLTIGHTPLVRLNRIGNGRILAKVESRNPSFSVKCRIGANMIWDAEKRGVLKPGVELVEPTSGNTGIALAYVAAARGYKLTLTMPETMSIERRKLLKALGANLVLTEGAKGMKGAIQKAEEIVASNPEKYLLLQQFSNPANPEIHEKTTGPEIWEDTDGQVDVFIAGVGTGGTLTGVSRYIKGTKGKTDLISVAVEPTDSPVIAQALAGEEIKPGPHKIQGIGAGFIPANLDLKLVDKVIGITNEEAISTARRLMEEEGILAGISSGAAVAAALKLQEDESFTNKNIVVILPSSGERYLSTALFADLFTEKELQQ
B4: Escherichia coli serine acetyltransferase CysE (enzyme)
chain: MSCEELEIVWNNIKAEARTLADCEPMLASFYHATLLKHENLGSALSYMLANKLSSPIMPAIAIREVVEEAYAADPEMIASAACDIQAVRTRDPAVDKYSTPLLYLKGFHALQAYRIGHWLWNQGRRALAIFLQNQVSVTFQVDIHPAAKIGRGIMLDHATGIVVGETAVIENDVSILQSVTLGGTGKSGGDRHPKIREGVMIGAGAKILGNIEVGRGAKIGAGSVVLQPVPPHTTAAGVPARIVGKPDSDKPSMDMDQHFNGINHTFEYGDGI

What was measured:
[1] = target: Neisseria gonorrhoeae O-acetylserine sulfhydrylase CysK (Neisseria gonorrhoeae); assay: SEC-SAXS
[2] = target: Neisseria gonorrhoeae O-acetylserine sulfhydrylase CysK (Neisseria gonorrhoeae); assay: SEC
SEC-SAXS = target: the molecule itself; assay: SEC-SAXS
SEC = target: the molecule itself; assay: SEC
[3] = target: B3; assay: SEC

Molecule | stoichiometry N (SEC-SAXS) | stoichiometry N (SEC) | also measured
Neisseria gonorrhoeae O-acetylserine sulfhydrylase CysK (enzyme) |  |  | stoichiometry N [1]: 2; stoichiometry N [2]: 2
B1 | 2 |  | 
B2 |  | 6 | 
B3 | 2 |  | 
B4 |  | 6 | binding result [3]: binds
